# Laboratory results: patent publication US20200131227A1, “POLYPEPTIDE WITH TUMOUR BINDING ACTIVITY” (RUPRECHT-KARLS-UNIVERSITÄT HEIDELBERG, priority 2017, published 2020)
# Where a SMILES comes first, the peptide text is derived from it. Bridges are numbered along the chain shown (N, C = ends). Where no end group is shown, it is not given here. The star is where a group is joined. DOTA = O=C(O)CN1CCN(CC(=O)O)CCN(CC(=O)*)CCN(CC(=O)O)CC1; 125I = iodine-125 label on tyrosine, [125I]*
# How the values were obtained:
# [1] = PET/CT scan of HNSCC tumor patient with SFLAP3; format: in vivo, human; conditions: human, right cervical lesion, iv, 322 MBq, total radioactivity; read-out: SUVmax right cervical lesion
# Excerpt: (§1) The emission data were corrected for randoms, scatter and decay. […] The quantitative assessment of tracer accumulation was done using a region of interest technique and using standardized uptake values (SUV).
# HNSCC tumor = assay: PET/CT scan of HNSCC tumor patient with SFLAP3; format: in vivo, human
# Excerpt: as §1
# [2] = Small-animal PET imaging, HNO399 xenografts; parameters: species or system mice; conditions: Balb/c nude, mouse, in vivo, iv, total radioactivity; 60 min after injection; read-out: SUVmean in tumor
# Capan-2 xenografts = assay: Small-animal PET imaging, Capan-2 xenografts; format: in vivo, mice; conditions: 25 MBq
# Procedure: 6 to 8 week old Balb c/c nude mice (Charles River Lab.) were inoculated with 5*10^6 Capan-2 cells in 100 μl Opti-MEM medium. After 4 to 6 weeks the tumor has grown 10-15 mm in diameter. For small animal PET imaging 25 MBq of the ^68Ga-labeled peptide (2 nmol) was injected into the tail vein.
# [3] = Small-animal PET imaging, HNO97 xenografts; conditions: Balb/c nude, mouse, in vivo, iv, total radioactivity
# Procedure: All experiments were conducted in compliance with the German animal protection laws. Eight week old Balb c/c nude mice (Charles River Laboratories) were inoculated subcutaneously at the right shoulder with 5×10^6 HNO97 cells in BD MatriGel™ (BD Bioscience). Xenografts were grown to a tumor diameter of 10-15 mm. For small animal-PET imaging mice were anesthetized using isoflurane inhalation and injected via tail-vein with 50 MBq (2 nmol) of the ^68Ga-labeled DOTA-SFITGv6 peptide (see above) solution in 100 μL PBS. Images were recorded on an Inveon small-animal PET scanner (Siemens) using a 60 min emission scan in list mode and a 10 min transmission scan. Images were taken in 3-dimensional (3D) mode and reconstructed iteratively with a fully 3D algorithm from a 256×256 matrix for viewing transaxial, coronal, and sagittal slices of 0.9 mm thickness. Pixel size was 0.38×0.38×0.79 mm3 and transaxial resolution obtained was 0.9 mm. For blocking experiments 100 μL of a 1 mM aqueous solution of SFITGv6 was pre-administered intraperitoneally 30 min before injection of the radiolabeled peptide. Biodistribution studies were performed after administration of 100 μL of a 20 nM ^177Lu-DOTA-SFITGv6 solution (1 MBq) as an intravenous bolus injection into the tail vein of the mice. After different time points (30 min to 6 hours) three animals, respectively, were sacrificed. Peripheral blood, heart, lung, spleen, liver, kidneys, muscle, brain, intestine, and injection site (tail, after intravenous injection only) were collected and weighted. Tissue-associated radioactivity was measured in a gamma counter (Berthold LB951G) and expressed as percentage of the injected dose per gram tissue (% ID/g).
# All animal experiments were conducted in compliance with the German animal protection laws. For in vivo small animal PET imaging and organ distribution studies eight-week old Balb/c nude mice (Charles River Laboratories) were inoculated subcutaneously at the right shoulder with a total of 5×10^6 tumor cells in MatriGel (BD Bioscience). Xenografts were grown until a tumor diameter of 10-15 mm was reached.
# 3-dimensional (3D) PET images of whole mice were captured by the Siemens Inveon PET scanner as described in Example 1. To assess the biodistribution 100 μL of a 20 nM solution (1 MBq) of ^177Lu-DOTA-SFLAP3 and ^177Lu-DOTA-SFITGv6 were administered as an intravenous bolus injection into the tail vein of mice. For each time point (30 min to 6 hours) we sacrificed a total of three animals, and subsequently collected peripheral blood, heart, lung, spleen, liver, kidneys, muscle, brain, and intestine. Tissues were weighed and respective radioactivity was measured by a gamma counter (LB951G, Berthold Technologies). Values were expressed as percentage of the injected dose radioactivity (MBq) per gram tissue (% ID/g).
# [4] = tested on: metastasized pancreatic cancer; assay: PET/CT and scintigraphy of pancreatic cancer patient; format: in vivo, human; conditions: 1 and 3 hours after injection
# Procedure: PET/CT scans of tumor patients and body scintigraphy were performed as described in Example 1.
# [5] = Small-animal PET imaging, HNO223 xenografts; parameters: species or system mice; conditions: Balb/c nude, mouse, in vivo, iv, total radioactivity; 60 min after injection; read-out: SUVmean in tumor
# carcinoma cell lines = assay: In vitro binding of radiolabeled peptides to several carcinoma cell lines; format: cell-based, human; conditions: 10^−6 M competitor; all tested HNSCC cell lines
# Procedure: For binding studies, 2.5×10^5 to 4×10^5 cells were seeded in 6-well plates and cultivated for 48 hours. Cells were incubated for 60 min with 1 mL serum-free medium containing the ^125I-labeled peptide (see above). For competition experiments, cells were simultaneously exposed to unlabeled (10^-4 M to 10^-10 M) and ^125I-labeled peptides. After three washing steps with PBS (pH 7.4) the cells were lysed with 0.5 mL of 0.3 M NaOH. Experiments concerning the internalization, kinetics and efflux were additionally performed with ^177Lu-DOTA-SFITGv6. To evaluate kinetics and efflux HNO97 cells were incubated for different time intervals (10 min to 480 min) and 60 min, respectively, with ^177Lu-DOTA-SFITGv6 and lysed as described. To continue with the efflux experiment radioactive medium was replaced by non-radioactive medium and cells were incubated again for 60 to 240 min before measuring radioactivity of the cell lysates and the medium. For internalization experiments the cells were exposed to ^177Lu-DOTA-SFITGv6 for different time intervals (10 to 240 min) at 37° C. and 4° C. After three washing steps with PBS the cells were incubated with 1 mL of glycine-HCl 50 mmol/L in PBS (pH 2.8) for 10 min at RT to remove the surface bound activity. Then, cells were washed with 3 mL of ice-cold PBS and lysed as described. Radioactivity was determined in a gamma counter and calculated as percentage of the applied dose per 1×10^6 cells. Experiments were performed three times, and three repetitions per independent experiment were acquired.
# (§2) For the assessment of the peptide binding capacity in vitro, 2.5-4×10^5 cells were seeded into 6-well plates and cultivated for 48 h. ^125I-labeled peptide resuspended in 1 mL serum-free medium was added and incubated for either 10 min or 60 min with or without different concentrations of unlabeled peptide (10^−4-10^−11 M). Afterwards, cell monolayers were washed three times with 1 mL phosphate-buffered saline (pH 7.4) to remove unbound peptide and the cells were harvested with 1.4 mL lysis buffer (0.3 M NaOH). To evaluate kinetic properties the cells were exposed to ^177Lu-DOTA-labeled peptides for 10, 30, 60, 120, and 240 min, respectively, and lysed as described. For the efflux experiments the cells were incubated with ^177Lu-DOTA-labeled peptides for 60 min. Thereafter, radioactive medium was replaced by non-radioactive medium and cell monolayers were incubated for additional 60, 120, and 240 min and afterwards lysed as described earlier. The internalization was assessed after exposure of the cells to ^177Lu-DOTA-labeled peptides for 10, 30, 60, 120, and 240 min at 37° C. Unspecifically bound peptide was removed from the surface by incubation with 1 M glycine-HCl solution (pH 2.2) for 10 min. The monolayer cell was rinsed with PBS and cells were lysed as described before. Radioactivity was determined in a y-counter and calculated as percentage of the applied dose per 1×10^6 cells. Experiments were performed three times, and three repetitions per independent experiment were acquired.
# OV433 and OV429 = assay: In vitro binding on ovarian cancer cell lines; format: cell-based, human; conditions: highest binding among tested ovarian cell lines
# Procedure: (§3) For in vitro binding Studies, 4*10^5-6*10^5 cells were seeded in 6 well plates and cultivated for 24 to 48 hours. At the start of the experiment the medium was replaced with 1 ml serum free medium with a definite amount of radioactive labeled peptide per well. For normal binding assays the cells were incubated for 60 min at 37° C. and afterwards washed 3 times with PBS (pH 7.4). Cells were lysed with 2 times 0.5 ml of a 0.3 M NaOH +0.2% SDS lysis-buffer. Competition assays were performed with ^125I-labeled and unlabelled (10^−6 to 10^−11M) peptide and incubated at the same time for 60 min.
# HNO399 cells = assay: In vitro binding on HNO399 cells; format: cell-based, human; conditions: 60 min; percent applied dose/10^6 cells
# Procedure: as §2, with “To evaluate kinetic properties the cells were exposed to ^177Lu-DOTA-labeled peptides for 10, 30, 60, 120, and 240 min, respectively, and lysed as described.” left out, “The internalization was assessed after exposure of the cells to ^177Lu-DOTA-labeled peptides for 10, 30, 60, 120, and 240 min at 37° C.” left out
# Capan-2 cells = assay: In vitro binding, internalization and efflux on Capan-2 cells; format: cell-based, human; conditions: 60 min
# Procedure: as §3
# Cells were incubated for 10 to 240 min with ^177Lu-labelled peptide in internalization assays. After the washing steps, the cells were incubated with 1 ml glycine-HCl (1 M, pH 2.2) buffer for 10 min to remove surface bound peptide. Prior to the lyses the cells were washed again. Values are given as percentage of applied dose per 10^6 cells.
# The efflux was tested with ^177Lu-labeled peptides. After 60 min incubation the radioactive medium was removed and 1 ml fresh serum-free medium was added. After additional incubation of 60, 120 or 240 min, cell bound activity was measured.
molecule,measurement,setting,value
"CC(C)C[C@@H]1NC(=O)[C@H](CC(=O)O)NC(=O)CNC(=O)[C@H](CCCNC(=N)N)NC(=O)CNC(=O)[C@H]([C@@H](C)O)NC(=O)[C@@H](NC(=O)[C@H](CCCNC(=N)N)NC(=O)CNC(=O)CN2CCN(CC(=O)O)CCN(CC(=O)O)CCN(CC(=O)O)CC2)CSSC[C@@H](C(=O)N[C@@H](Cc2ccc(O)cc2)C(=O)N2CCC[C@H]2C(=O)N[C@@H](CC(=O)O)C(N)=O)NC(=O)[C@H](CC(C)C)NC(=O)[C@H](CCCNC(=N)N)NC(=O)CNC1=O [^68Ga-DOTA-SFLAP3, metal not drawn] ({DOTA}-GRCTGRGDLGRLCYPD-NH2; disulfide 3-13; N-terminus and C-terminus assumed)",SUV,[1],4.1 SUV
same,SUVmax Bight kidney,HNSCC tumor; 60 min,22.43
same,SUVmax Blood pool (mediast.),HNSCC tumor; 60 min,0.99
same,SUVmax Cerebral parietal,HNSCC tumor; 60 min,0.05
same,SUVmax Colon ascendens,HNSCC tumor; 60 min,9.2
same,SUVmax Colon descendens,HNSCC tumor; 60 min,3.75
same,SUVmax Duodenum,HNSCC tumor; 60 min,6.31
same,SUVmax Hilar lymph nodes,HNSCC tumor; 60 min,4.07
same,SUVmax Ileum,HNSCC tumor; 60 min,4.07
same,SUVmax Jejunum,HNSCC tumor; 60 min,10.46
same,SUVmax Kidney (left),HNSCC tumor; 60 min,60.52
same,SUVmax Liver (left),HNSCC tumor; 60 min,0.67
same,SUVmax Liver (right),HNSCC tumor; 60 min,0.73
same,SUVmax Lung (left),HNSCC tumor; 60 min,0.36
same,SUVmax Lung (right),HNSCC tumor; 60 min,0.33
same,SUVmax Muscle (glut.),HNSCC tumor; 60 min,1.94
same,SUVmax Os ileum,HNSCC tumor; 60 min,0.53
same,SUVmax Pancreas head,HNSCC tumor; 60 min,2.3
same,SUVmax Plexus choroideus,HNSCC tumor; 60 min,1.06
same,SUVmax Spleen,HNSCC tumor; 60 min,0.54
same,SUVmax Stomach,HNSCC tumor; 60 min,12.65
same,SUVmax Thyroid,HNSCC tumor; 60 min,3.27
same,SUVmax Tumor,"HNSCC tumor; 60 min, listed as 68Ga-DOTA labeled SFLAP3",5.07
same,SUVmax Tumor,"HNSCC tumor; 60 min, listed as 68Ga-DOTA-labled SFLAP3",5.1
same,SUVmax Bight kidney,HNSCC tumor; 180 min,26.41
same,SUVmax Blood pool (mediast.),HNSCC tumor; 180 min,1.05
same,SUVmax Cerebral parietal,HNSCC tumor; 180 min,0.27
same,SUVmax Colon ascendens,HNSCC tumor; 180 min,19.37
same,SUVmax Colon descendens,HNSCC tumor; 180 min,2.97
same,SUVmax Duodenum,HNSCC tumor; 180 min,8.91
same,SUVmax Hilar lymph nodes,HNSCC tumor; 180 min,4.15
same,SUVmax Ileum,HNSCC tumor; 180 min,17.65
same,SUVmax Jejunum,HNSCC tumor; 180 min,9.2
same,SUVmax Kidney (left),HNSCC tumor; 180 min,36.85
same,SUVmax Liver (left),HNSCC tumor; 180 min,0.76
same,SUVmax Liver (right),HNSCC tumor; 180 min,0.75
same,SUVmax Lung (left),HNSCC tumor; 180 min,0.46
same,SUVmax Lung (right),HNSCC tumor; 180 min,0.33
same,SUVmax Muscle (glut.),HNSCC tumor; 180 min,1.92
same,SUVmax Os ileum,HNSCC tumor; 180 min,0.47
same,SUVmax Pancreas head,HNSCC tumor; 180 min,2.62
same,SUVmax Plexus choroideus,HNSCC tumor; 180 min,1.57
same,SUVmax Spleen,HNSCC tumor; 180 min,0.8
same,SUVmax Thyroid,HNSCC tumor; 180 min,3.24
same,SUVmax Tumor,HNSCC tumor; 180 min,4.64
same,SUV at 1 h,[2],0.44 SUV
same,time p.i. at which tracer accumulation was seen in the tumor,Capan-2 xenografts,20 min
same,SUV at 1 h,[3],0.63 SUV
same,PET/CT accumulation in tumor lesions,[4],high accumulation over 3 hours into the tumor lesions
same,SUV at 1 h,[5],0.32 SUV
^125I-SFLAP3: ^125I-labeled SFLAP3 (GRCTGRGDLGRLCY(125I)PD; disulfide 3-13),competition of binding by non-radioactively labeled counterpart,carcinoma cell lines,almost completely competed
same,binding of ^125I-SFLAP3,OV433 and OV429,5%
same,binding of ^125I-labeled peptide,HNO399 cells,10.1%
same,^125I-SFLAP3 binding value,Capan-2 cells,14%
